Changes are numbered by the printed parent chain.
Columns and labels:
[1] = biological target: T1, ΔFOSB Cys172Ser/JUND heterodimers (Mus musculus, UniProt P13346+P15066, C172S); assay: FP dose-response against ΔFOSB Cys172Ser/JUND heterodimers; format: binding; details: 50 nM TMR-cdk5, 280 nM protein, compound 0–200 μM
T1 sequence (P13346 2-237 isoform P13346-2 C172S): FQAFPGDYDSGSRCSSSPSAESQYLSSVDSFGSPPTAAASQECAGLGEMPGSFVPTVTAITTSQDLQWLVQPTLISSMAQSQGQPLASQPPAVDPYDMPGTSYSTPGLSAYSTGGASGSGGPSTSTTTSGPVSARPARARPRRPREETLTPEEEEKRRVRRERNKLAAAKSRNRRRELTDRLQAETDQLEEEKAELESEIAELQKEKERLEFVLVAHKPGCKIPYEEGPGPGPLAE
T1 sequence (P15066 2-341): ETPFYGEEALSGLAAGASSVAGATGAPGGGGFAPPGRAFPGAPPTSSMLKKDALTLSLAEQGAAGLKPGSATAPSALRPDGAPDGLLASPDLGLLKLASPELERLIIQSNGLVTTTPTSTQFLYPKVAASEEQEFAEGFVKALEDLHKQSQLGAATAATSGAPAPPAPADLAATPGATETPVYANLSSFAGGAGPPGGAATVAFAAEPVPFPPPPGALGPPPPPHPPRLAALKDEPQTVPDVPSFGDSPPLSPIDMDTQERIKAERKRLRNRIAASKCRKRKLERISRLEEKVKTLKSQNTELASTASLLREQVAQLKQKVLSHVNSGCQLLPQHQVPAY

ΔFOSB Cys172Ser homomers = biological target: T2, ΔFOSB Cys172Ser homomers (Mus musculus, UniProt P13346, C172S); assay: FP dose-response against ΔFOSB Cys172Ser homomers; format: binding; details: 50 nM TMR-cdk5, 280 nM protein, compound 0–200 μM
T2 sequence (P13346 2-237 isoform P13346-2 C172S): T1 sequence (P13346 2-237 isoform P13346-2 C172S)

ΔFOSB Cys172Trp = biological target: T3, ΔFOSB Cys172Trp (mouse, UniProt P13346-2 2-237, C172W); assay: fluorescence polarization
T3 sequence: T1 sequence (P13346 2-237 isoform P13346-2 C172S) with S171W

ΔFOSB (N(His)6-ΔFOSB) = biological target: T4, ΔFOSB (N(His)6-ΔFOSB) (mouse, UniProt P13346-2 2-237); assay: fluorescence polarization
T4 sequence: T1 sequence (P13346 2-237 isoform P13346-2 C172S) with S171C

[2] = biological target: T5, ΔFOSB (N(His)6-ΔFOSB);JUND (N(His)6-JUND) (mouse;mouse, UniProt P13346-2;P15066 2-237;2-341, |); assay: fluorescence polarization
T5 sequence 1: T1 sequence (P13346 2-237 isoform P13346-2 C172S) with S171C
T5 sequence 2: T1 sequence (P15066 2-341)

[3] = biological target: T5, ΔFOSB (N(His)6-ΔFOSB);JUND …; assay: EMSA

## O=C(O)CCc1cc(C(=O)c2ccc(OC3CCCC3)cc2O)ccc1OCc1ccc2c(=O)[nH]oc2c1 [Compound T5224]
[1]
  Disruption of DNA binding to ΔFOSB Cys172Ser/JUND heterodimers: similarly well as to the wild-type species
ΔFOSB Cys172Ser homomers
  Disruption of DNA binding to ΔFOSB Cys172Ser homomers: similarly well as to the wild-type species

B1: TMR-cdk5 (dsDNA)
DNA 1: CGTCGGTGACTCAAAACAC
DNA 2: GTGTTTTGAGTCACCGACG
ΔFOSB Cys172Trp
  binding result: binds
ΔFOSB (N(His)6-ΔFOSB)
  binding result: binds
[2]
  binding result: binds

B2: BIO-cdk5 (dsDNA)
DNA 1: CGTCGGTGACTCAAAACAC
DNA 2: GTGTTTTGAGTCACCGACG
[3]
  binding result: binds

From PMC9458432 (Nucleic Acids Research, 2022)
